# Experimental data taken from publication PMC3215742.
# Assays:
# [1] = biological target: Renilla luciferase (RLuc)-fused tetherin (human) (UniProt Q10589)
# [2] = biological target: Renilla luciferase (RLuc)-fused tetherin (human) (UniProt Q10589); test: FRET or BRET; BRET in HEK293T cells cotransfected with RLuc-tetherin and Vpu-eYFP (or eYFP alone); media with 10 µM BIT225 or DMSO from 6 h after transfection; cells collected 48 h post-transfection, washed in PBS; coelenterazine H 5 µM; Synergy 4 plate reader
# Chain of UniProt Q10589 (Q10589 1-161): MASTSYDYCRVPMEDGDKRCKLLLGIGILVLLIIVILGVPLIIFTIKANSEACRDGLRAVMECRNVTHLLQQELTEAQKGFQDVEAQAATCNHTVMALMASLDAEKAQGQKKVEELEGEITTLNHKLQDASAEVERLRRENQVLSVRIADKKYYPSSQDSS
substance,measurement,setting,value
enhanced yellow fluorescent protein (eYFP)-fused Vpu (from UniProt P05919 1-82) (natural protein),tetherin cell surface expression (flow cytometry) in wt infected CEM-SS cells compared to uninfected populations; not affected by 10 µM BIT225,[1],75%
same,tetherin cell surface expression (flow cytometry) in wt infected SupT1-tetherin^pos cells compared to uninfected controls; not affected by 10 µM BIT225,[1],70%
same,"BRET signal (DMSO, without BIT225)",[2],52
same,BRET signal (with 10 µM BIT225),[2],51
